Data on 3 molecules can be found in article PMC5150220, “Multivalent contacts of the Hsp70 Ssb contribute to its architecture on ribosomes and nascent chain interaction” (Nature Communications, 2016).

Ends that are not written are not given here.

B1: Ssb1 (wild type, recombinant) (natural protein)
chain: not shown
notes: Hsp70 Ssb1 of Saccharomyces cerevisiae, wild type, expressed as His6-Smt3-Ssb1 and cleaved with Ulp1; The nucleotide state was set by pre-treatment with ATP (SsbATP) or apyrase (SsbADP) in one experiment; also called wt Ssb1; full length Ssb1; source: E. coli BL21(DE3)*/pRARE, purified (Ni-IDA, Ulp1 cleavage, Resource Q anion exchange); not shown: His6, N-terminal, cleaved; Smt3, N-terminal, …
B2: IAANS-labelled peptide σ32-Q132-Q144-C (peptide)
peptide: QRKLFFNLRKTKQC
modifications: also: IAANS label, position not given here
notes: sigma-32 (heat shock sigma factor RpoH), residues Q132-Q144; The unlabelled peptide was used in 100-fold excess as the chase in the release assay; also called model peptide
B3: APPY peptide (biotinylated) (peptide)
peptide: SALLQSRLLLSAPRRAAATARYC
modifications: also: biotinylated, position not given here
notes: canonic Hsp70 substrate peptide APPY

Holding throughout (conditions): both partners purified
The target in assay [1] is B3. The experiment in a line: SEC; as a1, but Ssb pre-incubated with apyrase (SsbADP) before the peptide was added, compared with Ssb pre-incubated with ATP (SsbATP) and treated with apyrase after the peptide; shifted APPY signals quantified.
Assay [2] concerns the target B1. The experiment in a line: fluorescence polarisation; fluorescence anisotropy; Ssb1 wt or mutant (10 uM in the methods; titrated up to 100 uM in the text) with 1 uM IAANS-labelled peptide in HKM buffer (25 mM HEPES, 150 mM KCl, 5 mM MgCl2, 1 mM DTT, 10% glycerol), 1.5 h at 30 °C.
The target of assay [3] is T1, Ssb1Δ601–13 (recombinant) (S. cerevisiae, UniProt P11484 1-600).
T1 construct: Purified as the wild type ('His6-Smt3-Ssb1 construct (or mutations thereof)'); also called mutant Ssb1; source: E. coli BL21(DE3)*/pRARE, purified (Ni-IDA, Ulp1 cleavage, Resource Q anion exchange); not shown: His6, N-terminal, cleaved; Smt3, N-terminal, cleaved
The description is as above.

Assay [4] deals with B1. The assay can be described thus: SEC; 2 uM biotinylated peptide incubated 30 min at RT with 4 uM purified Ssb1 in Ssb buffer (30 mM HEPES KOH pH 7.4, 50 mM KAc, 5 mM MgCl2, 1 mM beta-mercaptoethanol), then apyrase for 1 h; Superose 12; fractions dot-blotted, peptide detected with StrepTactin-HRP and Ssb with antibody.
For assay [5], the target named is T1, Ssb1Δ601–13 (recombinant). The description is as above.

T1 sequence (P11484 1-600, stated change not applied): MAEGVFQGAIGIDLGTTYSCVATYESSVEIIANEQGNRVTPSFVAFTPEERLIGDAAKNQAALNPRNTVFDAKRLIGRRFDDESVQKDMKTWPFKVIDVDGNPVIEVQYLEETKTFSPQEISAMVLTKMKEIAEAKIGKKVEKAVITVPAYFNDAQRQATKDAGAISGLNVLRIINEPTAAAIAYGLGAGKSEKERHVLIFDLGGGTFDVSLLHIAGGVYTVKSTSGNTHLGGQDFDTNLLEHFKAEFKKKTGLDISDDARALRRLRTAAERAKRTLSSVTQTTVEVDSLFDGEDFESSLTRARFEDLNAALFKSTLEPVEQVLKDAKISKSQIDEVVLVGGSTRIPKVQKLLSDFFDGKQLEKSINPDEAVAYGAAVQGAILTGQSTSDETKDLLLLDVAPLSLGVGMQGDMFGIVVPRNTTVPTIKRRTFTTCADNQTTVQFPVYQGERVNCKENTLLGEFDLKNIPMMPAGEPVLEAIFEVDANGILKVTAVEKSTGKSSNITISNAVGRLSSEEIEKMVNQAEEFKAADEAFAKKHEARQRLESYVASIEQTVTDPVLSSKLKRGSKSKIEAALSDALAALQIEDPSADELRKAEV

Consider B1, for which the “shifted APPY signal of SsbADP relative to SsbATP” value in assay [1] was 71%.

In the case of B2, the binding result in assay [2] and in assay [3] was “binds” throughout.

Regarding B3, the binding result in assay [4] and in assay [5] was “binds” in each case.
